The text below walks through data of patent publication US20170342155A1 (Amgen, published 2017).

Substitutions are numbered along the chain they refer to.

Experiment [1] has as its target T1, wild-type murine CCR7 (pcDNA3.1 Neo-mouseCCR7, 20060298628) (mouse, UniProt P47774 25-378).
T1 construct: Full open reading frame as printed; Expressed on transfected 293T cells; also called mCCR7; wild-type murine CCR7 receptor
T1 sequence: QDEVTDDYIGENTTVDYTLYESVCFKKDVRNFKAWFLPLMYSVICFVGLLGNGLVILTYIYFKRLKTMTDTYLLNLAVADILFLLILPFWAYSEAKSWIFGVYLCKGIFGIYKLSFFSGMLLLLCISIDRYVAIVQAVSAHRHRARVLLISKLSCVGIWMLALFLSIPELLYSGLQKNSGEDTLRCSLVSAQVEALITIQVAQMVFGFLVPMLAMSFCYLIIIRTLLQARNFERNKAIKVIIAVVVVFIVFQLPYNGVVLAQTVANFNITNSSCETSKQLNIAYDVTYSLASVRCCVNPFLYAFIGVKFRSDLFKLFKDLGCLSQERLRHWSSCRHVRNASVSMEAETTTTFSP
Put plainly: flow cytometry on transfected 293T cells. How it is done:
293T cells were transfected with each of the 22 constructs using Fugene HD Transfection Reagent (Cat #: 04709705001) (Roche Applied Sciences, Indianapolis, Ind.) according to manufacturer's protocol. DNA to Fugene HD ratio used was 1:3. […] After 48 hours, transfected cells were harvested and washed with PBS+5% FBS two times. Cells were counted using the Nexcelom Cell Counter (Nexcelom Bioscience, Lawrence, Mass.), and 250,000 cells per well were plated in a 96 well round bottom plate. Cells transfected with each construct were stained in duplicate as follows: unstained control, 6B4.1 primary Ab followed by Goat anti-human-PE secondary Ab, 6B5.1 primary Ab followed by Goat anti-human-PE secondary Ab, mAb197 primary Ab followed by Goat anti-mouse-PE secondary Ab, and the controls of secondary Ab Goat anti-mouse-PE only and Goat anti-human-PE only. The cells were visualized by flow cytometry and geo means were generated and analyzed.
(Flow cytometry measures light scatter and fluorescence of single cells or particles in a stream.)

Experiment [2] has as its target T2, human CCR7 variant L47V (20100122626) (human, UniProt P32248 25-378).
T2 sequence: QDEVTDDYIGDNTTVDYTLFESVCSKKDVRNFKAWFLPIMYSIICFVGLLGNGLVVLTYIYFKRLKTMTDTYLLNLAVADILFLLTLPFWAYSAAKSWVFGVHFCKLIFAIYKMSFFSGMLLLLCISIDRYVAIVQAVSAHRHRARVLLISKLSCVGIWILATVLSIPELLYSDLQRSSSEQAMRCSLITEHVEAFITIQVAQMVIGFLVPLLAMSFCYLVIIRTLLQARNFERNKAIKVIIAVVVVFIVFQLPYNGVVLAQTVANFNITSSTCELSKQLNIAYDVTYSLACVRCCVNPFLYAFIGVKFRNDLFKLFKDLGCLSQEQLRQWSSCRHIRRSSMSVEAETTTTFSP
Put plainly: flow cytometry on transfected 293T cells, PE secondary antibody, geo mean.

The target in experiment [3] is T3, human CCR7 variant V123I (20100126473) (human, UniProt P32248 25-378).
T3 sequence: T2 sequence with V23L, V99I
The description is as above.

Experiment [4] deals with T4, human CCR7 variant S204G (20100171269) (human, UniProt P32248 25-378).
T4 sequence: T2 sequence with V23L, S180G
Described as above.

Experiment [5] deals with T5, human CCR7 variant S295N (20110018205) (human, UniProt P32248 25-378).
T5 sequence: T2 sequence with V23L, S271N
Described as above.

Experiment [6] concerns the target T6, human CCR7 variant T297S (20110018203) (human, UniProt P32248 25-378).
T6 sequence: T2 sequence with V23L, T273S
The description is as above.

B1: antibody 6B4.1 (antibody, V domains shown)
VH: QVQLVESGGGVVQPGRSLRLSCAASGFTFSSYGMHWVRQAPGKGLEWVAVIWYDGSKKYYADSVKGRFTISRDNSKNTLYLQMNRLRAEDTAVYYCARDGGIAVFLQDNWFDPWGQGTLVTVSS
VL: SYELTQPPSVSVSPGQRARITCSGDKLGDKYASWYQQKPGQSPLLVIYQDSKRPSGIPERFSGSNSGNTATLTISGTQAMDEADYYCQAWGSSTVIFGGGTKLTVLG
notes: Human antibody from XenoMouse hybridoma; Light = 2 and heavy = 42 is inferred from the order of the listing (light chains first)
Consider B1, for which the binding result is listed as “no binding” in experiment [1]; “binds” in experiment [2]; “binds” in experiment [3]; “binds” in experiment [4]; “binds” in experiment [5]; “binds” in experiment [6].

B2: antibody 6B5.1 (antibody, human IgG2, lambda, V domains shown)
VH: B1 VH with S30R, Q107E
VL: B1 VL with R19S, S51G
notes: Human antibody from XenoMouse hybridoma; Light = 18 and heavy = 50 is inferred from the order of the listing
With B2, the binding result was “no binding” in experiment [1]; “binds” in experiment [2]; “binds” in experiment [3]; “binds” in experiment [4]; “binds” in experiment [5]; “binds” in experiment [6].
